Source: patent US5662885A, “Peptide derived radionuclide chelators” (Resolution Pharmaceuticals Inc., priority 1994, dated 1997)
Starred links: 1 amine or outer side, 2 acyl side, 3 side chain; linkers in the order of their positions; H or OH if unused. Non-standard residues stand in square brackets, D forms with d. No end group written: not given here. *: point of attachment. Cys(Acm) = CC(=O)NCSC[C@H](N[*:1])C(=O)[*:2]; Me2Gly = CN(C)CC(=O)*

Legend:
[1] = tested on: zymosan-induced focal inflammation in left hindleg of rats; conditions: rat, in vivo, iv
Protocol: (§1) Rat inflammation studies were performed as follows. 2 male Wistar rats (Charles River, 200-250 g) were injected intramuscularly with (25 mg) zymosan, a yeast cell wall suspension, into their left hindlegs 24 hours before imaging. Focal inflammation in the leg was visually detectable after 1 day.
(§2) The rats were anaesthetized with somnitol (40 to 50 mg/kg), and the labeled conjugate solution (200 μL) was injected intravenously via the tail vein. Serial whole-body scintigrams were acquired at 30 minutes. The rats were then killed with anaesthesia overdose and samples of organs, urine, blood, inflamed muscle (left leg) and non-inflamed muscle (right leg) and inflammatory exudate (fluid) were weighed and counted in either a well-type gamma counter or in a gamma dose calibrator depending upon the organ. The dose calculations were made based on the assumption that the blood volume constituted 8% of body weight. The results of the conjugates represented in the table below are averages for two rats and are corrected for the residual dose in the tail.

[2] = tested on: zymosan-induced focal inflammation in left hindleg of rats; assay: Rat inflammation study: in vivo imaging and biodistribution of Tc-99m labeled conjugates; conditions: i.v. tail vein, 30 minutes, average of two rats; for Inflam:Uninfl (target to background ratio, inflamed:uninflamed muscle): zymosan-inflamed left leg vs right leg muscle
Protocol: as §1, §2

Substance	GI Tract (% dose) [1] [% dose]	Liver (% dose) [1] [% dose]	Urine (% dose) [1] [% dose]	Fluid:Blood (inflammatory exudate:blood) [2]	Inflam:Uninfl (target to background ratio, inflamed:uninflamed muscle) [2]
N,N-dimethylGly-Ser-Cys(Acm)-Gly-Thr-Lys-Pro-Pro-Arg-OH ([Me2Gly]S[Cys(Acm)]GTKPPR-OH; also: 99mTc label via N,N-dimethylGly-Ser-Cys(Acm) chelator) [N,N-dimethylGly-Ser-Cys(Acm)-GTKPPR-OH]	2.8	2.4	63.5	1.9	5.3
N,N-dimethylGly-Thr-Cys(Acm)-Gly-Thr-Lys-Pro-Pro-Arg ([Me2Gly]T[Cys(Acm)]GTKPPR; also: 99mTc label via N,N-dimethylGly/Cys(Acm) chelator) [N,N-dimethylGly-Thr-Cys(Acm)-GTKPPR-OH]	2.5	2.4	68.5	1.6	4.6
